From patent US20230381333A1 (HANMI PHARM, published 2023)
Bridge positions count the residues as written; N and C are the ends. Square brackets hold non-standard residues; d marks the D form. Ends that are not written are not given here. * marks the point of attachment. Acetyl(2-(4-imidazolyl)) = O=C(Cc1c[nH]cn1)*; Aib = CC(C)(N)C(=O)O

B1: triple agonist of SEQ ID NO: 81 (peptide)
peptide: {Acetyl(2-(4-imidazolyl))}-[Aib]QGTFTSDYSKYLDEKRQKEFVQWLLNTC
modifications: bridge 15-19
B2: triple agonist of SEQ ID NO: 73 (peptide)
peptide: {Acetyl(2-(4-imidazolyl))}-[Aib]QGTFTSDYSKYLDECRAKEFVQWLLDHHPSSGQPPPS
modifications: bridge 15-19
B3: triple agonist of SEQ ID NO: 80 (peptide)
peptide: H[Aib]EGTFTSDYSIAMDEIHQKDFVDWLLAEKC
modifications: bridge 16-20
B4: triple agonist of SEQ ID NO: 62 (peptide)
peptide: {Acetyl(2-(4-imidazolyl))}-[Aib]QGTFTSDKSKYLDERAAQDFVQWLLDGGPSSGAPPPS
B5: triple agonist of SEQ ID NO: 64 (peptide)
peptide: Y[Aib]QGTFTSDYSKYLDECAAKEFVQWLLDHHPSSGQPPPS
modifications: bridge 16-20
B6: triple agonist of SEQ ID NO: 9 (peptide)
peptide: H[Aib]QGTFTSDVSKYLDGQAAQEFVAWLLAGC
B7: triple agonist of SEQ ID NO: 7 (peptide)
peptide: H[Aib]QGTFTSDVSKYLDGQAAKEFVAWLLKGC
B8: triple agonist of SEQ ID NO: 77 (peptide)
peptide: Y[Aib]QGTFTSDYSKYLDEKAAKDFVQWLLDHHPSSGQPPPSC
modifications: bridge 16-20
B9: triple agonist of SEQ ID NO: 60 (peptide)
peptide: {Acetyl(2-(4-imidazolyl))}-[Aib]QGTFTSDYSIAMDEKHCKDFVNWLLNTK
modifications: bridge 15-19
B10: triple agonist of SEQ ID NO: 67 (peptide)
peptide: Y[Aib]QGTFTSDYSKYLDECAAKDFVQWLLDHHPSSGQPPPS
modifications: also: ring formation (underlined residues), positions not given here
B11: triple agonist of SEQ ID NO: 78 (peptide)
peptide: H[Aib]QGTFTSDYSKYLDEKRQKEFVQWLLDTKC
modifications: bridge 16-20
B12: triple agonist of SEQ ID NO: 79 (peptide)
peptide: H[Aib]EGTFTSDYSIAMDEIHQKDFVNWLLAQKC
modifications: bridge 16-20
B13: triple agonist of SEQ ID NO: 63 (peptide)
peptide: {Acetyl(2-(4-imidazolyl))}-[Aib]QGTFTSDCSKYLDERAAQDFVQWLLDGGPSSGAPPPS
B14: triple agonist of SEQ ID NO: 8 (peptide)
peptide: H[Aib]QGTFTSDVSKYLDGQAAQEFVAWLLKGC
B15: triple agonist of SEQ ID NO: 74 (peptide)
peptide: {Acetyl(2-(4-imidazolyl))}-[Aib]QGTFTSDYSKCLDEKRAKEFVQWLLDHHPSSGQPPPS
modifications: bridge 15-19
B16: triple agonist of SEQ ID NO: 71 (peptide)
peptide: Y[Aib]QGTFTSDYSKYLDERACKDFVQWLLDHHPSSGQPPPS
modifications: bridge 16-20
B17: triple agonist of SEQ ID NO: 84 (peptide)
peptide: {Acetyl(2-(4-imidazolyl))}-[Aib]EGTFTSDYSIAMDEIHQKDFVDWLLAEC
modifications: bridge 15-19
B18: triple agonist of SEQ ID NO: 69 (peptide)
peptide: Y[Aib]QGTFTSDYSKCLDERAAKEFVQWLLDHHPSSGQPPPS
modifications: bridge 16-20
B19: triple agonist of SEQ ID NO: 72 (peptide)
peptide: Y[Aib]QGTFTSDCSKYLDERAAKDFVQWLLDHHPSSGQPPPS
modifications: bridge 16-20
B20: triple agonist of SEQ ID NO: 76 (peptide)
peptide: Y[Aib]QGTFTSDYSKYLDEKRAKDFVQWLLDHHPSSGQPPPSC
modifications: bridge 16-20
B21: triple agonist of SEQ ID NO: 66 (peptide)
peptide: Y[Aib]QGTFTSDYSKYLDECRAKDFVQWLLDHHPSSGQPPPS
modifications: bridge 16-20
B22: triple agonist of SEQ ID NO: 61 (peptide)
peptide: {Acetyl(2-(4-imidazolyl))}-[Aib]QGTFTSDYSIAMDEIACKDFVNWLLNTK
modifications: bridge 15-19
B23: triple agonist of SEQ ID NO: 70 (peptide)
peptide: Y[Aib]QGTFTSDYSKCLDEKRAKDFVQWLLDHHPSSGQPPPS
modifications: bridge 16-20
B24: triple agonist of SEQ ID NO: 75 (peptide)
peptide: Y[Aib]QGTFTSDYSKYLDEKAAKEFVQWLLDHHPSSGQPPPSC
modifications: bridge 16-20
B25: triple agonist of SEQ ID NO: 83 (peptide)
peptide: {Acetyl(2-(4-imidazolyl))}-[Aib]EGTFTSDYSIAMDEIHQKDFVNWLLAQC
modifications: bridge 15-19
B26: triple agonist of SEQ ID NO: 65 (peptide)
peptide: H[Aib]QGTFTSDYSKCLDEKRAKEFVQWLLDHHPSSGQPPPS
modifications: bridge 16-20
B27: triple agonist of SEQ ID NO: 68 (peptide)
peptide: Y[Aib]QGTFTSDYSKCLDEKAAKEFVQWLLDHHPSSGQPPPS
modifications: bridge 16-20
B28: triple agonist of SEQ ID NO: 82 (peptide)
peptide: {Acetyl(2-(4-imidazolyl))}-[Aib]QGTFTSDYSKYLDEKRQKEFVQWLLDTC
modifications: bridge 15-19

molecular target: human GLP-1 receptor (human, UniProt P43220 24-463); test: cell-based or functional assay

Going from B1 to B2, the “In vitro activity compared to native-type peptide (%), vs GLP-1” value (shortened to “In vitro activity … (%), vs GLP-1”) rises from 7.8% to 22.6%.

Compared with B3, B4 is lower in “In vitro activity … (%), vs GLP-1” value: 8.1% for the first, 5.2% for the second.

Going from B5 to B6, the “In vitro activity … (%), vs GLP-1” value falls from 64.6% to 32.1%.

Compared with B7, B8 is higher in “In vitro activity … (%), vs GLP-1” value: 13.7% for the first, 38.7% for the second.

First: B9
Second: B10
The “In vitro activity … (%), vs GLP-1” value of the first is higher: 106% for the first, 28.5% for the second.

Compared with B11, B12 is lower in “In vitro activity … (%), vs GLP-1” value: 51% for the first, 41.5% for the second.

First: B13
Second: B14
The “In vitro activity … (%), vs GLP-1” value of the first is higher: 15.3% for the first, 14.2% for the second.

Going from B15 to B16, the “In vitro activity … (%), vs GLP-1” value rises from 12.9% to 90.1%.

First: B17
Second: B18
The “In vitro activity … (%), vs GLP-1” value of the first is lower: 4.2% for the first, 24.3% for the second.

First: B19
Second: B20
The “In vitro activity … (%), vs GLP-1” value of the first is higher: 11.5% for the first, 10.3% for the second.

Compared with B21, B22 is higher in “In vitro activity … (%), vs GLP-1” value: 15.8% for the first, 59.8% for the second.

Compared with B23, B24 is higher in “In vitro activity … (%), vs GLP-1” value: 15.1% for the first, 35.1% for the second.

First: B25
Second: B26
The “In vitro activity … (%), vs GLP-1” value of the first is lower: 47.3% for the first, 95.4% for the second.

First: B27
Second: B28
The “In vitro activity … (%), vs GLP-1” value of the first is higher: 27.9% for the first, 9.5% for the second.

molecular target: human GCG receptor (human, UniProt P47871 26-477); test: cell-based or functional assay
Sequence (P47871 26-477): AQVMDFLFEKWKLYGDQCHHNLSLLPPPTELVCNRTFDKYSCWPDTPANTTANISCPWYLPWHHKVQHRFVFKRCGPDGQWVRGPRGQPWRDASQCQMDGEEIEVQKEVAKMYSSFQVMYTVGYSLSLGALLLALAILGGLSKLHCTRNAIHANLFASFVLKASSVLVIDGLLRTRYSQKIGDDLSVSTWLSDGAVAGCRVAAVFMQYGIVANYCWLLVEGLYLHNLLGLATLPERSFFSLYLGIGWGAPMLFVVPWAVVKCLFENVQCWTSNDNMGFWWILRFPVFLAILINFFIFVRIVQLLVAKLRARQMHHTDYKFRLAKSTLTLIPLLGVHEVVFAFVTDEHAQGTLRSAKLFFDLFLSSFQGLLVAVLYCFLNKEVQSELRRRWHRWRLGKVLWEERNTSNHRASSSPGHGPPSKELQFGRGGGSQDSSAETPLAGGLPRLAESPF

Going from B1 to B2, the “In vitro activity compared to native-type peptide (%), vs Glucagon” value (from here on “In vitro activity … (%), vs Glucagon”) rises from 0.3% to 5.4%.

B3 and B4 cannot be ordered by “In vitro activity … (%), vs Glucagon” value: 0% for the first, under 0.1% for the second.

First: B5
Second: B6
The “In vitro activity … (%), vs Glucagon” value of the first is higher: 60.1% for the first, 0.13% for the second.

Compared with B7, B8 is higher in “In vitro activity … (%), vs Glucagon” value: under 0.1% for the first, 12.2% for the second.

Compared with B9, B10 is higher in “In vitro activity … (%), vs Glucagon” value: under 0.1% for the first, 46.2% for the second.

First: B11
Second: B12
The “In vitro activity … (%), vs Glucagon” value of the first is higher: 14% for the first, 4.9% for the second.

Compared with B13, B14 is higher in “In vitro activity … (%), vs Glucagon” value: under 0.1% for the first, 0.1% for the second.

First: B15
Second: B16
The “In vitro activity … (%), vs Glucagon” value of the first is lower: 0.9% for the first, 12.7% for the second.

Compared with B17, B18 is higher in “In vitro activity … (%), vs Glucagon” value: under 0.1% for the first, 9.6% for the second.

First: B19
Second: B20
The “In vitro activity … (%), vs Glucagon” value of the first is lower: 1% for the first, 47.6% for the second.

First: B21
Second: B22
The “In vitro activity … (%), vs Glucagon” value of the first is higher: 172% for the first, under 0.1% for the second.

First: B23
Second: B24
The “In vitro activity … (%), vs Glucagon” value of the first is higher: 71.3% for the first, 8.5% for the second.

Compared with B25, B26 is higher in “In vitro activity … (%), vs Glucagon” value: 1.3% for the first, 25.2% for the second.

Compared with B27, B28 is lower in “In vitro activity … (%), vs Glucagon” value: 8.8% for the first, 1.1% for the second.

molecular target: T1, human GIP receptor (human, UniProt P48546 22-466); test: cell-based or functional assay
T1 sequence (looked up): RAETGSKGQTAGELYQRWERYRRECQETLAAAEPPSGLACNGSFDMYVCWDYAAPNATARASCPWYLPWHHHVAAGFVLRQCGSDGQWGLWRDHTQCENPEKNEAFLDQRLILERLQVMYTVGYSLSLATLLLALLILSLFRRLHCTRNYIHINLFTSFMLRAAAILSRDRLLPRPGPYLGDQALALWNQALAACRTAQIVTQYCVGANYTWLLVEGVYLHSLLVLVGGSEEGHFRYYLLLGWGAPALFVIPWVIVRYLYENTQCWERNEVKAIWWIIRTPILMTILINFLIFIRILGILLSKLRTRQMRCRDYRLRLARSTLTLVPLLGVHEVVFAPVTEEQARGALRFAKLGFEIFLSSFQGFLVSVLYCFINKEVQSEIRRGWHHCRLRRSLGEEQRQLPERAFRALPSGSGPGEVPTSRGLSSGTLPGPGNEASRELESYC

Compared with B1, B2 is higher in “In vitro activity compared to native-type peptide (%), vs GIP” value (“In vitro activity … (%), vs GIP” below): under 0.1% for the first, 3% for the second.

Going from B3 to B4, the “In vitro activity … (%), vs GIP” value falls from 0.1% to under 0.1%.

Compared with B5, B6 is lower in “In vitro activity … (%), vs GIP” value: 92.9% for the first, under 0.1% for the second.

Going from B7 to B8, the “In vitro activity … (%), vs GIP” value rises from under 0.1% to 35.5%.

Going from B9 to B10, the “In vitro activity … (%), vs GIP” value rises from 8.2% to 39.8%.

First: B11
Second: B12
The “In vitro activity … (%), vs GIP” value of the first is lower: 0.12% for the first, 1.4% for the second.

B13 and B14 cannot be ordered by “In vitro activity … (%), vs GIP” value: under 0.1% for the first, under 0.1% for the second.

First: B15
Second: B16
The “In vitro activity … (%), vs GIP” value of the first is lower: 1% for the first, 94.7% for the second.

First: B17
Second: B18
The “In vitro activity … (%), vs GIP” value of the first is lower: under 0.1% for the first, 62.8% for the second.

Compared with B19, B20 is higher in “In vitro activity … (%), vs GIP” value: 1.6% for the first, 11.7% for the second.

Compared with B21, B22 is lower in “In vitro activity … (%), vs GIP” value: 17.2% for the first, 2.8% for the second.

Going from B23 to B24, the “In vitro activity … (%), vs GIP” value falls from 64.4% to 18%.

First: B25
Second: B26
The “In vitro activity … (%), vs GIP” value of the first is lower: 0.4% for the first, 11.6% for the second.

Going from B27 to B28, the “In vitro activity … (%), vs GIP” value falls from 107% to under 0.1%.
